Earlier results, collected in patent publication US20250064829A1, “METHODS OF USING ANTI-CD79B IMMUNOCONJUGATES TO TREAT DIFFUSE LARGE B-CELL LYMPHOMA” (Genentech, Inc., priority 2019, published 2025).

Key:
[1] = 1000 mg/m^2 at fixed dose rate of 10 mg/m^2/min compared to the standard 30-minute IV schedule
[2] = target: T1, human CD20 antigen (Homo sapiens, UniProt P11836); conditions: in vitro mechanism of action studies (Reff et al. 1994)
T1 sequence (P11836 1-297): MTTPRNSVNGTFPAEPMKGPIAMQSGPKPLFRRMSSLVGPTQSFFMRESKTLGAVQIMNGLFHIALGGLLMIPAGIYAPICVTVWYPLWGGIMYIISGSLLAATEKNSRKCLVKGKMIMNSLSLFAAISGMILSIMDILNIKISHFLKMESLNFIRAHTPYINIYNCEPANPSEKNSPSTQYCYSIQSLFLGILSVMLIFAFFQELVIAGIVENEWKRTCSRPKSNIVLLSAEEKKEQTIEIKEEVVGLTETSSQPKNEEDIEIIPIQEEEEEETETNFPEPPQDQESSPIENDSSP

[3] = target: T1, human CD20 antigen; conditions: in vitro

| Molecule | intracellular drug concentrations [1] | human complement-dependent cytotoxicity (CDC) [2] | activity in assays that measure antibody-dependent cellular cytotoxicity (ADCC) [3] |
| --- | --- | --- | --- |
| Cl.Nc1ccn([C@@H]2O[C@H](CO)[C@@H](O)C2(F)F)c(=O)n1 [gemcitabine, 2′-deoxy-2′,2′-difluorocytidine monohydrochloride] | superior intracellular drug concentrations |  |  |
| rituximab: anti-CD20 antibody having the CAS Registry Number 174722-31-7; type I anti-CD20 antibody |  | exhibits human complement-dependent cytotoxicity (CDC) | exhibits activity |
